Kd and stoichiometry N data for one substance are collected here from PMC11599015.

In the test the target is recombinant circular RABV N10-RNA complex purified from insect cells (phosphorylated) (rabies virus (RABV)) (UniProt Q8JXF6). Kind of test: SPR.
Chain of recombinant circular RABV N10-RNA complex purified from insect cells (phosphorylated) (rabies virus (RABV)) (Q8JXF6 whole entry, one chain of several): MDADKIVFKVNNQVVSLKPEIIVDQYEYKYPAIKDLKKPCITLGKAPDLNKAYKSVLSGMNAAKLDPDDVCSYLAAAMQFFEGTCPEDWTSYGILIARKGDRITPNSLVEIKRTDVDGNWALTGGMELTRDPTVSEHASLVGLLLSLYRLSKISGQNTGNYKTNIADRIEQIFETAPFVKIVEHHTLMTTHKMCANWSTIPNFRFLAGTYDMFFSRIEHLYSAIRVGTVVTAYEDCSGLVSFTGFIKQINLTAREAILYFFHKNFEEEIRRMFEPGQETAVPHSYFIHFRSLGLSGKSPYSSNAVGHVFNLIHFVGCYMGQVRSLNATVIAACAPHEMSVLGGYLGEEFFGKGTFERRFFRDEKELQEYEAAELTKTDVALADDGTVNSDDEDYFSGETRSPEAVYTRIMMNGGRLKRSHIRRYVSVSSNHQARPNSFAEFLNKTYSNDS

On to “RABV phosphoprotein P deleted of residues 90-133 (dimerization domain) (domain or fragment)”, for which the Kd (usually the equilibrium constant for the complex coming apart) is 80 nM and the stoichiometry N (in general, a count of units in the complex or per binding partner) stood at 1.7.
